# Results reported in the DeepSol protein solubility set.
# Experiment: soluble on expression in E. coli; label from the status in PepcDB or PDB records
row,Sequence,soluble on expression in E. coli
1,MGSDKIHHHHHHMEMVMKNKRVAIIGAGPSGIAQLRAFESAEKQGHEIPELVCFEKQDTWGGQWNYSWRTGTDSYGEPVHSSMYRNLWSNGPKEVLEFAEYSFDEHFGKPISSYPPREVLWDYIAGRAKKSNVEKYIKFAHVVRWVSFDEATKLFTVTVENLRTGETSSDTYDNVIVGAGHFSFPNVPHFDGVETFPGQIMHAHEFRGAEAVADKDILLIGASYSAEDIGTQAYKMGARSVTFSYRSNPMGYEWPEEMTELPLVERFDGSEVHFVNGEKRKVDIVVFCTGYLHHYPFMPSELTLSSPNNLYPDTLYRGVVSEANNQLFWLGAQDQWLTFNMFDAQAWYVRDVILGRVALPSKEAQRNHMDKWLSRFEGLKSENDQIDFQCDYVEDLIDQTDYPSFDLKEVANILKGWVKSKEEDILNYRDYTYTSVMTGTTSVEHHTPWMIELDDSLERYLSEPQEDEARQVYRGKKVRDKA,not soluble
2,GMKYKAAIFDMDGTILDTSADLTSALNYAFEQTGHRHDFTVEDIKNFFGSGVVVAVTRALAYEAGSSRESLVAFGTKDEQIPEAVTQTEVNRVLEVFKPYYADHCQIKTGPFPGILDLMKNLRQKGVKLAVVSNKPNEAVQVLVEELFPGSFDFALGEKSGIRRKPAPDMTSECVKVLGVPRDKCVYIGDSEIDIQTARNSEMDEIAVNWGFRSVPFLQKHGATVIVDTAEKLEEAILGE,soluble
3,GMENIEYVFEDVVRIYDTDAQGIAHYAAYYRFFTNTIEKFIKEKVGIPYPIVNENLWFVIAESHAIYHRPVKLGDKLTVLLNPKILSNKTIKFEFKVLKDGELTTEGYVIQIAINPKIWKSTEMPKEIMDKLSIK,soluble
4,MILTPIRRYGAMILMLLTLVFSSEVLAKTHTTTASQKSHLTKASNKQVSSKQEYSRNSAKSSSLPDLRKYPSGTSRKKAFLRTVMPYITSQNAAITAERNWLISKQYQGQWSPAERARLKDIAKRYKVKWSGNTRKIPWNTLLERVDIIPTSMVATMAAAESGWGTSKLARNNNNLFGMKCMKGRCTNAPGKVKGYSQFSSVKESVSAYVTNLNTHPAYSSFRKSRAQLRKADQEVTATAMIHKLKGYSTKGKSYNNYLFAMYQDNQRLIAAHM,not soluble
5,MVKSIVILIETVTMKIPAVYSDGSFKTFNDSETTAQKLVDSGVVNTFAFGPTLVENGKVAVSENEEVGQDMADNPRTAIVVNEESDRSVHYIVIVSDGRTSESSGLTLYEMAELMKSYGVMTGYNLDVGDSSTMYSNGQVINKPTRKRKQNLRKGGERYRLHRLLKNLLASTFSPPILVLEHHHHHH,soluble
6,MGSDKIHHHHHHMLQQRIQSLEEQEHLPSLLSADAQELAHQLQEHQKKIFSPSAQKTMRLFSPAEAAAFIGIGEGYLRQIASEGHGPQPLSNGRRMYAMEDIDRIRRVLDEGSKTGKYIPHRRPGEKLQVVSVMNFKGGSGKTTTSAHLAQYLALRGYRVLAIDLDPQASLSALFGHQPELDVGEGETLYGAIRYEAPRPIAEVVRSTYTANLHLIPGNLELMEFEHETPKAMIAGSTETMFFARIGEVLSEIESFYDIVVIDCPPQLGFLTMSALCAATSVLITVHPQMLDVMSMSQFLSMTSELMAVVENAGGRTSYDWMRYLVTRFEPNDGPQSQMTGFMRAIFGNRMLQNAMVKSTAISDAGVTKQTLYEVERSQFIRGTYDRAMDSLSLVNAEIEEMIRRVWGRK,not soluble
7,MGSDKIHHHHHHMIAHPCYVDKFSQQVHFHAIDFARSRWNIFLLWQLKNLIQQIQPAIVHAQAGKAAELIARIKPFLSGPKFITTVHGTKKNKSAYLAGDAVIAVSQALTQGIPESKAHVVYNGVYPQPVLTTENKEKLLQSIQKDFTELDTSKRVVMCIGRLEPVKNISLLIESMQQIDANLWIVGDGSLRASLEKQVSELNMQNRVAFLGFRTDARDLVQLADIVVLSSDREGFPLVMVEALQADKAMASTKVNGVIEWLPEQYLAEIGDTQGLAKAIEYALQPEAQNDFGPLYAKAKAELTVPAMAEQTLNIYKGLLKT,not soluble
8,MKKMGGKIFAVRVTQGQEENTARLIYSKVKTYNLPIYAILAPSKVKGYIFIEAPEKSVVDEAIRGIRHARGVLPGEIPFSEIEHFLEEKPAVSGLEPGDIVELISGPFKGEKAKVVRVDESKDEIVVELIGAIVPIPVTVRGEYVRLISKRQKEE,soluble
9,GPGSMNCFGVRNWWRNNLPELQLLNPFCSFTIQELSFGEPHMYINYTPTDQRMIRLAGATEDECEDIMEACITYGMNHAIIERPRTDDGGDLINQPAITSFGYTESFMSKLEVSPPADIGQRTPEGVDDPGQKPRVYPRNVGFKIMP,not soluble
